Earlier results as cited in paper PMC8277102.

Target: EmrA (Escherichia coli) (UniProt P27303)
Experiment: SPR

In the case of EmrA (from UniProt P27303), the Kd is listed as 1870 nM.
